Assay results taken from the nanobody polyreactivity screen of Harvey et al. (2022).

Test: yeast display, Sf9 membrane polyspecificity reagent, FACS + sequencing; frameworks hold sequencing errors
In short: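 A nanobody's polyreactivity label depends on the gate it was sorted from. Yeast display cells were stained with 10% biotinylated, detergent-solubilized Sf9 membrane reagent for 1 hour at 4 °C, enriched on streptavidin microbeads and sorted by FACS. The low and high (top ~1%) gates were set on anti-HA fluorescence for expression and streptavidin fluorescence for reagent binding.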

Row | Sequence | polyreactivity (PSR sort gate)
1 | QVQLVESGGGLVQAGGSLRLSCAASGSTFPIYAMGWYRQAPGKERELVAAITWRGGSRTYYADSVKGRFTISRDNAKNTVYLQMNSLKPEDTAVYYCAAEYQWPLYGYWGQGTQVTVSS | low polyreactivity
2 | QVQLVESGGGLVQAGGSLRLSCAASGSTFPKNAKGWYRPAPGKERELVAAINTGGSTYYADSVKGRFTISRDNAKNTVYLQMNSLKPEDTAVYYCAARDNYHRDVGHPYDYWGQGTQVTVSS | low polyreactivity
3 | QVQLVESGGGLVQAGGSLRLSCAASGSTFPKYAMGWYRQAPGKERELVAGISWRGGRTYYADSVKGRFTISRDNAKNTVYLQMNSLKPEDTAVYYCATDYYAFNQGEVKWYDYWGQGTQVSVSS | high polyreactivity
4 | QVQLVESGGGLVQAGGSLRLSCAASGSTFPKYAMGWYRQAPGKERELVASISVTTGSTYYADSVKGRFTISRDNAKITVYLQMNSLKPEDTAVYYCAKYRPGIPYYQYGSWGQGTQVTVSS | high polyreactivity
5 | QVQLVESGGGLVQAGGSLRLSCAASGSTFPLYAMGWYRQAPGKERELVAAITGGGGRTYYADSVKGRFTISRDNAKNTVYLQMNSLKPEDTAVYYCATDSFGYDWYWGQGTQVTVSS | low polyreactivity
6 | QVQLVESGGGLVQAGGSLRLSCAASGSTFPLYAMGWYRQAPGKERELVAAITSGGGNTYYADSVKGRFTISRDNAKNTVYLQMNSLKPEDTAVYYCAAVGGYKSYYSYEYDYWGQGTQVTVSS | low polyreactivity
7 | QVQLVESGGGLVQAGGSLRLSCAASGSTFPLYTRGWYRQAPGKERELVAAISGGSTTYYADSVKGRFTISRDNAKNTVYLQMNSLKPEDTAVYYCAAYAYTSRWYGFDYWGQGTQVTVSS | low polyreactivity
8 | QVQLVESGGGLVQAGGSLRLSCAASGSTFPPNAMGWSRQAPGKERELVAAISERGGSTYYADSVKGRFTISRDNAKNTVYLQMNSLKPEDTAVYYCAVDYYYLMYWGQGTQVTVSS | low polyreactivity
9 | QVQLVESGGGLVQAGGSLRLSCAASGSTFPPNTMGWYRQAPGKERELVAAITQRGGNTYYADSVKGRFTISRDNAKNTVYLQMNSLKPEDTAVYYCATRYRYKGYYGQYEYWGQGTQVTVSS | high polyreactivity
10 | QVQLVESGGGLVQAGGSLRLSCAASGSTFPRNDMGWYRQAPGNERELVAAISRGGSTNYADSVKGRFTISRDNANNTVYLQMNSMKPEDTAVYYCAAQIFESAYGMDYWGQGTQVTVSS | low polyreactivity
11 | QVQLVESGGGLVQAGGSLRLSCAASGSTFPRYAMAWYRQAPGKERELVAAISSSGRTYYADSVKGRFTISRDNAKNTFYLQMNSLKPEDTAVYYCNAPVARGEASYYWGQGTQVTVSS | high polyreactivity
12 | QVQLVESGGGLVQAGGSLRLSCAASGSTFPRYAMGWYRQAPGKEREFVAAISRRGGSTYYADSVKGRFTISRDNAKNTVYLQMNSLKPEDTAVYYCAKYLPTRVWGTGRFDYWGQGTQVTVSS | high polyreactivity
13 | QVQLVESGGGLVQAGGSLRLSCAASGSTFPRYAMGWYRQAPGKERELVAAISGRGGSTYYADSVKGRFTISRDYAKNTVYLQMNSLKPEDTAVYYCNAYRRYYTMYYWGQGTQVTVSS | high polyreactivity
14 | QVQLVESGGGLVQAGGSLRLSCAASGSTFPSNAMGWYRQAPGKERELVAAISRGGGTTYYADSVKGRFTISRDNAKNTVYLQMNSLKPEDTAVYYCATRGSVGWFDGGGYWGQGTQVTVSS | high polyreactivity
15 | QVQLVESGGGLVQAGGSLRLSCAASGSTFPSNAMGWYRQAPGKERELVAAISRSGGSTNYADSVKGRFTISRDNAKNTVYLQMNSLKPVDTAVYYCKADLGRATFYQRVFIERGGYWGQGTQVTVSS | low polyreactivity
16 | QVQLVESGGGLVQAGGSLRLSCAASGSTFPSNAMGWYRQAPGKERELVAAISRSGGSTYYADSVKGRFTISRDNAKNTVYLQMNSLKPEDTAVYFCAVQVRPNSGGTRIHRGGYDYWGQGTQVTVSS | low polyreactivity
17 | QVQLVESGGGLVQAGGSLRLSCAASGSTFPSYAMGWYRQAPGKESELVAAITNGGSTTYADSVKGRFTISRDNAKNTVYLQMNSLKPEDTAVYYCAARYYYYYYYIRRDYWGQGTQVTVSS | low polyreactivity
18 | QVQLVESGGGLVQAGGSLRLSCAASGSTFPTNAMGWYRQAPGKERELVADINGNGGRTYYADSVKGRFTISRDNAKNTVYLQMNSLKPEDTAVYYCAVEPDVYPSWYYYVDYDYWGQGTQVTVSS | low polyreactivity
19 | QVQLVESGGGLVQAGGSLRLSCAASGSTFPTYAMGWYRPAPGKERELVAAITRGGRTYYADSVKGRFTISRDNAKNTVYLQMNSLKPEDTAVYYCAAVYYGAAQYNYWGQGTQVTVSS | high polyreactivity
20 | QVQLVESGGGLVQAGGSLRLSCAASGSTFPTYAMGWYRQAPGKERELVAAITWSGGSTYYADSVKGRFTISRDNAKNTVYLLMNSLKPEDTAVYYCAKSTGYGRRQKRYDWGQGSQVTVSS | high polyreactivity
21 | QVQLVESGGGLVQAGGSLRLSCAASGSTFPVNAKGWYRPAPGKERQLVATIRWTGGGTYYADSVKGRFTISRDNAKNTVYLQMNSLKPEDTAVYYCAADPPWEWSDYGYDYWGQGTQVTVSS | low polyreactivity
22 | QVQLVESGGGLVQAGGSLRLSCAASGSTFPVYAMGWYRQAPGKERELVAAITSGGSTYYADSVKGRFTISRDNAKNTVYLQMNSLKPEDTAVYYCAAEDSSPAYNHWGHGTQVTVSS | low polyreactivity

Row | Sequence | polyreactivity (PSR sort gate)
23 | QVQLVESGGGLVQAGGSLRLSCAASGSTFPWYDMGWYRQAPGKERELVADISGGTRTYYADSVKGRFTISRDNAKNTVYLQMNSLKPEDTAVYYCAVGYYWNEPLYWYGDFDYWGQGTQVTVSS | high polyreactivity
24 | QVQLVESGGGLVQAGGSLRLSCAASGSTFPYNAMGWYRQAPGKERELVAAISWSGGRTYYADSVKGRFTISRDNAKNTVYLQMNSLKPEDTAVDYCAKAVKQYGFYYWGQGTQVTVSS | high polyreactivity
25 | QVQLVESGGGLVQAGGSLRLSCAASGSTFPYNAMGWYRQAPGKERELVAAITGRGGSTYYADSVKGRFTISRDNAKNTVYLQMNSLKPEDTAVYYCAARYLYLLYYWGQGTQVTVSS | high polyreactivity
26 | QVQLVESGGGLVQAGGSLRLSCAASGSTFPYNTMGSYIQAPGKESELVATIRSRGDSTYFADSVKGRFTISRDNAKNTVYFQMNSLKPEDTAFYYCNADPRTLWWSRPYYSWGQGTQVTVSS | high polyreactivity
27 | QVQLVESGGGLVQAGGSLRLSCAASGSTFPYYAMGWYRQAPGKERELVAAITSSASTYYADSVKGRFTISRDNAKNTVYLQLNSPKPEDTADYYCPVRSPYRLSPWRVGYWGQGTQVTVSS | high polyreactivity
28 | QVQLVESGGGLVQAGGSLRLSCAASGSTFQFYAMGWYRQAPGKERELVAAIRSSDDSTYYADSVKGRFTSSRDNAKNTVYLQMNSLKPEDTAVYYCAAVQDYYGVWYDYWGQGTQVTVSS | high polyreactivity
29 | QVQLVESGGGLVQAGGSLRLSCAASGSTFQFYAMGWYRQAPGKERELVAVITSGDDTNYADSVKGRFTISRDNAKNTVYLQMNSLKPEDTAVYYCAVEYILVYTRVRSYWFDYWGQGTQVTVSS | low polyreactivity
30 | QVQLVESGGGLVQAGGSLRLSCAASGSTFQGYAMGWYRQAPGKERELVAAINYSGGSTYYADSVKGRFTISRDNAKNTVYFQMNSLKPEDTAVYYCAVKLRSRAVTSYGYWGQGTQVTVSS | high polyreactivity
31 | QVQLVESGGGLVQAGGSLRLSCAASGSTFQGYAMGWYRQAPGKERELVARISYTGASTYADSVKGRFTISRDNAKNTVYLQMNSLKPDDTAVYYCNAGGYRYRSYDYWGQGTQVTVSS | high polyreactivity
32 | QVQLVESGGGLVQAGGSLRLSCAASGSTFQLYAMGWYRQAPGKERELVAAISGIGDSTYYADSVKGRFTISRDNAKNTVYLQMNSLKPEDTAVYYCAREFSDGLSGKFDYWGHGTQVTVSS | low polyreactivity
33 | QVQLVESGGGLVQAGGSLRLSCAASGSTFQLYAMGWYRQAPGKESELVASISWSGGSTYYADSVKGRFTISRDNAKNTVYLQMNSLKPEDTAVYYCAADSRLYLRDDYWGQGTQVTVSS | low polyreactivity
34 | QVQLVESGGGLVQAGGSLRLSCAASGSTFQPNAMGWYRQAPGKERELVAAISKSDGRTYYADSVKGRFTISRDNAKNTVYLQMNSLQPEDTAVYNCAADAYWEPKVGFSLFDYWGQGTQVTVSS | low polyreactivity
35 | QVQLVESGGGLVQAGGSLRLSCAASGSTFQPYAMGWYRQAPGKERELVAAITFSGGSTYYADSVKGRFTISRDNAKNTVYLQMNSLKPEDTAVYYCAAYRRPDYGSWGQGTQVTVSS | high polyreactivity
36 | QVQLVESGGGLVQAGGSLRLSCAASGSTFQSKAMGWYRQAPGKERELVAAINSGTSTYYADSVKGRFTISRDNAKNTVYLQMNSLKPEDTAVYYCAADGIWGEYYYSELGDYDYWGQGTQVTVSS | low polyreactivity
37 | QVQLVESGGGLVQAGGSLRLSCAASGSTFQSYAMGRYRQAPGKERELVAAISFSGGSTYYADSVKGRFTISRDNAKNTVYLQMNSLKPEDTAVYYCAKRGWVYFHGYDYWGQGTQVTVSS | low polyreactivity
38 | QVQLVESGGGLVQAGGSLRLSCAASGSTFQSYAMGWYRQAPGKERELVAAIDIGDSTYYADSVKGRYTISRDNAKNTVYLQMNSLKPEDTAVYYCAADDEDVLFDYWGQGTQVTVSS | low polyreactivity
39 | QVQLVESGGGLVQAGGSLRLSCAASGSTFQSYAMGWYTQAPGKERELVAAISARGGTTYYADSVKGRFTISRDNAKNTVYLQMNSLKPEDTAVYYCAAEWDTNFWYDYWGQGTQVTVSS | low polyreactivity
40 | QVQLVESGGGLVQAGGSLRLSCAASGSTFQSYTMGWYRQAPGKERELVATITSTSSTSYADSVKGRFTISRDNAKNTVYLQMNSLKPEDTAVYYCNAEGLHWGQVTQVTVSS | low polyreactivity
41 | QVQLVESGGGLVQAGGSLRLSCAASGSTFQVYAMGWYRQAPGKERELVASITSGGITYYADSVKGRFTISRDNAKNTVYLQMNSLKPEDTAVYYCAVDIRQSGELQRLFLYDYWGQGTQVTVSS | low polyreactivity
42 | QVQLVESGGGLVQAGGSLRLSCAASGSTFQVYTKGWYIQAPGKEREFVASISWSGSSTYYADSVKGRFTISRDNAKNTVYLQMNSLKPEDTAVYYCAARARIKYLADPGYYWGQGTQVTVSS | high polyreactivity
43 | QVQLVESGGGLVQAGGSLRLSCAASGSTFQYNAMGWYRQAPGKERELVAAITGSGGSTYYADSVKGRFTISRDNAKNTVYLQMNSLKPEDTAVYYCAKLVRSFNWVLARHKYDYWGQGTQVTVSS | low polyreactivity
